From publication PMC7736784
Read-outs that look alike come from different tables or passages of the source.

Tests used:
[1] = molecular target: Sso7d-NanoLuc large fragment fusion
[2] = molecular target: Sso7d-NanoLuc large fragment fusion; remark: listed apart in the source

Substance	Kd [1] [µM]	Kd [2] [µM]
NS3	0.18	–
NS2-Stoffel fusion (NanoLuc small fragment NS2)	–	190
